B1: dehydrodolichyl diphosphate synthase (DHDDS), residues 1-333 (enzyme)
chain: MSWIKEGELSLWERFCANIIKAGPMPKHIAFIMDGNRRYAKKCQVERQEGHSQGFNKLAETLRWCLNLGILEVTVYAFSIENFKRSKSEVDGLMDLARQKFSRLMEEKEKLQKHGVCIRVLGDLHLLPLDLQELIAQAVQATKNYNKCFLNVCFAYTSRHEISNAVREMAWGVEQGLLDPSDISESLLDKCLYTNRSPHPDILIRTSGEVRLSDFLLWQTSHSCLVFQPVLWPEYTFWNLFEAILQFQMNHSVLQKARDMYAEERKRQQLERDQATVTEQLLREGLQASGDAQLRRTRLHKLSARREERVQGFLQALELKRADWLARLGTASA

Legend:
[1] = target: B1; test: crystal structure
crystal structure = target: the molecule itself; test: crystal structure

Row | binding result [1] | Binder | binding result (crystal structure)
1 | binds | Nogo B-receptor (NgBR) pseudo cis-prenyltransferase domain, residues 73-293, lacking residues 167-175 (domain or fragment) RGGSCLAAAHHRMRWRADGRSLEKLPVHMGLVITEVEQEPSFSDIASLVVWCMAVGISYISVYDHQGIFKRNNSRLMDEILKQQQELLGLDCSKDKDDQVLNCHLAVKVLSPEDGKADIVRAAQDFCQLVAQKQKRPTDLDVDTLASLLSSNGCPDPDLVLKFGPVDSTLGFLPWHIRLTEIVSLPSHLNISYEDFFSALRQYAACEQRLGK | –
2 | – | B1 | binds

— paper doi:10.1101/2021.10.21.465316 (bioRxiv, 2021)
